Reference: publication PMC9273042 (Science Immunology, 2022)

B1: IMM20253 (antibody, V domains shown)
VH: QVQLVESGGGVVQPGRSLRLSCTASGFTFSTYGMHWVRQAPGKGLEWVAVISYDGSSKHYAESVKGRFTISRDNSNNTLYLQMNRLRAEDTAVYYCARDGQPPGWGNYFDYWGQGTLVTVAS
VL: SYVLTQPPSVSVAPGKTARITCGGNGIGSKSVYWYQQKPGQAPEVVVYDDSDRPSGIPERFSGSNSGNTATLTISRVEAGDEADYYCQVWDSSSDPWVFGGGTKLTVL
B2: IMM20253 Fab (Fab, V domains shown)
VH: QVQLVESGGGVVQPGRSLRLSCTASGFTFSTYGMHWVRQAPGKGLEWVAVISYDGSSKHYAESVKGRFTISRDNSNNTLYLQMNRLRAEDTAVYYCARDGQPPGWGNYFDYWGQGTLVTVAS
VL: SYVLTQPPSVSVAPGKTARITCGGNGIGSKSVYWYQQKPGQAPEVVVYDDSDRPSGIPERFSGSNSGNTATLTISRVEAGDEADYYCQVWDSSSDPWVFGGGTKLTVL
notes: Fab of m3
B3: IMM20184 Fab (Fab, V domains shown)
VH: EVQLVESGGGLVQPGGSLRLSCSASGFTFSSFWMSWVRQAPGKGLEWVATIREDGSEKYYVDSVKGRFSISRDNAKNSLYLQMNSLRAEDTAVYYCARSKWLRGSFDYWGQGTLVTVSS
VL: NFMLTQPHSVSESPGKTVTISCTRRSGSIASNYVQWYQQRPGSAPTTVIYEDNQRPSGVPDRFSGSIDSSSNSASLTISGLQTEDEADYYCQSYDSSNPPGASWVFGGGTKLTVL
notes: Fab of m1
B4: IMM20184 (antibody, V domains shown)
VH: EVQLVESGGGLVQPGGSLRLSCSASGFTFSSFWMSWVRQAPGKGLEWVATIREDGSEKYYVDSVKGRFSISRDNAKNSLYLQMNSLRAEDTAVYYCARSKWLRGSFDYWGQGTLVTVSS
VL: NFMLTQPHSVSESPGKTVTISCTRRSGSIASNYVQWYQQRPGSAPTTVIYEDNQRPSGVPDRFSGSIDSSSNSASLTISGLQTEDEADYYCQSYDSSNPPGASWVFGGGTKLTVL
B5: IMM20190 (antibody, V domains shown)
VH: EVQLVESGGGLVQPGGSLRLSCSASGFTVSSNYMSWVRQAPRKGLEWVSVIYAGGSTFYADSVKGRFTISRDNSKNTLLLQMNSLRAEDTAVYYCARDRGGYLDYWGQGTLVTVSS
VL: DIQMTQSPSSLSASVGDRVTITCRASQGISNYLAWYQQKPGKVPKLLIYAASTLQSGVPSRFSGSGSGTDFTLTISSLQPEDVATYYCQKYNSAPGLTFGGGTKVEIK
B6: IMM20190 Fab (Fab, V domains shown)
VH: EVQLVESGGGLVQPGGSLRLSCSASGFTVSSNYMSWVRQAPRKGLEWVSVIYAGGSTFYADSVKGRFTISRDNSKNTLLLQMNSLRAEDTAVYYCARDRGGYLDYWGQGTLVTVSS
VL: DIQMTQSPSSLSASVGDRVTITCRASQGISNYLAWYQQKPGKVPKLLIYAASTLQSGVPSRFSGSGSGTDFTLTISSLQPEDVATYYCQKYNSAPGLTFGGGTKVEIK
notes: Fab of m2

Key:
Conditions in all cases: both partners purified
[1] = target: soluble RBD (WA1/2020 variant) (SARS-CoV-2, WA1/2020, UniProt P0DTC2); assay: SPR
[2] = target: Trimer Spike (soluble, WA1/2020 variant) (SARS-CoV-2, WA1/2020, UniProt P0DTC2); assay: SPR
RBD, SA variant (Beta) = target: T1, RBD, SA variant (Beta) (SARS-CoV-2, UniProt P0DTC2); assay: ELISA
T1 construct: source: bought: SinoBio

RBD, UK variant (Alpha) = target: T2, RBD, UK variant (Alpha) (SARS-CoV-2, UniProt P0DTC2); assay: ELISA
T2 construct: source: bought: SinoBio

[3] = target: T3, RBD, REF variant (Wuhan-1) (SARS-CoV-2, UniProt P0DTC2); assay: ELISA
T3 construct: source: bought: SinoBio

SARS-CoV-2 S 6P trimer = SARS-CoV-2 S 6P trimer (SARS-CoV-2, Wuhan-Hu-1/WA1 type, S-6P, stabilised); assay: cryo-EM structure

Row | Binder | Kd [1] [nM] | koff [1] [s⁻¹] | kon [1] [M⁻¹ s⁻¹] | Kd [2] [nM] | koff [2] [s⁻¹] | kon [2] [M⁻¹ s⁻¹] | percent inhibition of ACE2 binding (RBD, SA variant (Beta)) [%] | percent inhibition of ACE2 binding (RBD, UK variant (Alpha)) [%] | percent inhibition of ACE2 binding [3] [%] | stoichiometry N (SARS-CoV-2 S 6P trimer)
1 | B1 | 0.157 | 0.000218 | 1.39e+06 | 1.44 | 0.000117 | 81300 | ≤ 40 | ≤ 40 | ≤ 40 | 
2 | B2 |  |  |  |  |  |  |  |  |  | 1 Fab:Trimer
3 | B3 |  |  |  |  |  |  |  |  |  | 3 Fab:Trimer
4 | B4 | 2.2 | 0.00131 | 595000 | 7.35 | 0.000229 | 31200 |  |  |  | 
5 | B5 | 1.87 | 0.000376 | 202000 | 6.59 | 0.000195 | 29500 |  |  |  | 
6 | B6 |  |  |  |  |  |  |  |  |  | 3 Fab:Trimer
